Several values for one entry are separate records, joined by “and”; a condition that tells them apart may be missing. Identical values can stand only once. Like-named read-outs stand apart in the source and are kept apart here. Blank lines part the entries; values can stand above or below the molecule they belong to.
Experiments:
[1] = molecular target: alpha/beta-tubulin (Saccharomyces cerevisiae) (UniProt P09733); conditions: cited from earlier work
[2] = molecular target: alpha/beta-tubulin (Saccharomyces cerevisiae) (UniProt P09733); conditions: cited from earlier work; remark: listed apart in the source
[3] = molecular target: biotinylated polymerization-blocked yeast αβ-tubulin, LR1 (β: T175R,V179R) (yeast) (UniProt P09733); assay: BLI; biotinylated polymerization-blocked tubulin immobilised on streptavidin (SA) biosensors, OctetR8; TOG2 2.3 to 200 nM in solution; 90 mM PIPES, 10 mM NaCl, 1 mM MgCl2, 1 mM EGTA, 1 mM GTP, 0.1% BSA, 0.005% triton X-100; association 300 s, dissociation 300 s; 1:1 model, global kinetic fit and steady-state amplitudes

Molecule: Stu2 TOG1 (from UniProt P46675)
Kd [1]: 70 nM

Molecule: Stu2 TOG2 (from UniProt P46675)
Kd [2]: 160 nM

Kd [3]: 8.9 nM and 9.6 nM | koff [3]: 0.03 s⁻¹ | kon [3]: 3.2e+06 M⁻¹ s⁻¹
B1: Stu2-TOG2 (318–560) (domain or fragment)
chain: MLPEETILDKLPKDFQERITSSKWKDRVEALEEFWDSVLSQTKKLKSTSQNYSNLLGIYGHIIQKDANIQAVALAAQSVELICDKLKTPGFSKDYVSLVFTPLLDRTKEKKPSVIEAIRKALLTICKYYDPLASSGRNEDMLKDILEHMKHKTPQIRMECTQLFNASMKEEKDGYSTLQRYLKDEVVPIVIQIVNDTQPAIRTIGFESFAILIKIFGMNTFVKTLEHLDNLKRKKIEETVKTL

— article doi:10.1101/2025.06.09.658552
